± gives the uncertainty stated by the source.

The data set can be described thus: amyloid nucleation score (Sup35N fusion, yeast selection) (log enrichment); library NNK1; higher = more nucleation; inactive = no reads after selection. Summed up: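 The nucleation score is a DiMSum log enrichment of output over input reads, centred on the mode score of non-aggregating sequences. Sequences under 100 input reads were excluded, and reads came from Illumina sequencing of plasmid inserts. Psi-negative yeast expressing Sup35N fused to peptides of 20 random codons were induced with 100 μM copper sulfate for 24 hours and grown 7 days at 30°C on medium lacking adenine and uracil. Random libraries had three technical output replicates.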

As for HRSKS, the amyloid nucleation score was -0.087 ± 0.32.

For the substance RFVLKYSSFFMFTIRWCVVV, the amyloid nucleation score was -0.027 ± 0.44.

SDCRKAFIMSHRSDGNLEFV gave an amyloid nucleation score of 0.382 ± 1.4.

For LVVNEFALVNKPDINFCLPQ, the amyloid nucleation score amounted to 4.56 ± 0.092.

With PFVARQHMNPFTVVGTNLCH, the amyloid nucleation score is -0.376 ± 1.9.

In the case of STVGPMWVWTTTLAKNAIPK, the amyloid nucleation score turned out to be 0.833 ± 0.57.

With RASDRSSIMICF, the amyloid nucleation score came to 0.382 ± 1.4.

For VRISWRGGGPLSCDVCACMT, the amyloid nucleation score amounted to 0.479 ± 1.2.

For the substance KSIRVNTMHRC, the amyloid nucleation score was found to be 2.19 ± 0.3.

In turn, DHVSLSDSRKKRSQIGIIHA came in with an amyloid nucleation score of 0.978 ± 0.45.

The substance YFTERL returned an amyloid nucleation score of 0.122 ± 0.44.

On to NNCSWIIGHRVVPTSRGE, for which the amyloid nucleation score is -0.329 ± 0.45.

The substance KAQGPSFYEYRWITLNYLGY returned an amyloid nucleation score of 1.07 ± 0.15.

On to YGGISMLLCRSVWRFNRQYI, for which the amyloid nucleation score is 0.547 ± 0.76.

The substance SLLDSEGVRYLIMEL yielded an amyloid nucleation score of 0.102 ± 0.4.

In turn, HYIFIRECYCIYLSIAFSQT had an amyloid nucleation score of 0.33 ± 0.36.

Consider GKDLDMRRLWFGPAGIWWSK, for which the amyloid nucleation score was 0.006 ± 0.59.

As to NFFQWPSVETWTASIN, the amyloid nucleation score is -0.144 ± 0.41.

As to NRTWGYLSCALRNPSMTT, the amyloid nucleation score was -0.305 ± 0.47.

Take TLGLVDERHEDWIVLDYTLG: the amyloid nucleation score worked out at 0.422 ± 0.53.

GIRQLMAPYKPERWCWQRVG came in with an amyloid nucleation score of 0.344 ± 0.51.

Consider SYFGYNVIMEIHTI, for which the amyloid nucleation score is -0.122 ± 0.31.

As for NTMPSGWNRYTVYG, the amyloid nucleation score is -0.634 ± 0.44.

On to RRLFMGPI, for which the amyloid nucleation score amounted to 0.802 ± 1.

As for EIIET, the amyloid nucleation score amounted to 0.534 ± 0.34.

In turn, RTRTFVNPAAAIHMPPSEET yielded an amyloid nucleation score of 0.049 ± 0.29.

For the substance SLLGPIGIIQTWIPTHLDLF, the amyloid nucleation score result was “inactive”.

Take GAFGFITNRKRINCKLEDRD: the amyloid nucleation score is -1.32 ± 2.4.

Turning to LLNCLWDKMWTGLVRCIKNG, the amyloid nucleation score was -0.075 ± 0.35.

Regarding KFVYEGSGHQVILYVTLMGY, the amyloid nucleation score is -1.59 ± 0.84.

Turning to SKKSMYFLVRNWSQNLTRAG, the amyloid nucleation score worked out at 2.21 ± 0.63.

For RGYQNSLFTGMRRSSGSWSI, the amyloid nucleation score was determined as 0.43 ± 0.77.

With LLWISRTRPYWLLFSVWKLA, the amyloid nucleation score was -0.107 ± 0.9.

Regarding GIVGSG, the amyloid nucleation score is 2.29 ± 0.29.

Turning to TLDWLMSIFLILVSLAFNGL, the amyloid nucleation score was -0.14 ± 0.33.

As to VGFVLFLANSERYCDRISFG, the amyloid nucleation score was -0.13 ± 0.97.

Take HSWYEELMVVLNISSHGHLD: the amyloid nucleation score came to 0.351 ± 0.52.

Take SSYAVSTSSPCLSATSARLK: the amyloid nucleation score was 0.893 ± 0.98.

For SIVGLNQ, the amyloid nucleation score is 0.742 ± 0.43.

With VSVSRGRTFSFSIGSYRIGR, the amyloid nucleation score turned out to be 3.11 ± 0.091.

Regarding EDTSKVKICFSVIVYSMLNR, the amyloid nucleation score amounted to 8.161 ± 0.045.

Regarding ALCDYWDIA, the amyloid nucleation score result is “inactive”.

Turning to SKCCDSSRARVASSYS, the amyloid nucleation score was 0.261 ± 0.36.

With IKSHNMYYGRRRGVFLGPDR, the amyloid nucleation score is -0.075 ± 0.44.

The substance LCLVFVNLVLQRYGIASWYT showed an amyloid nucleation score of 0.531 ± 0.3.

Turning to GWNRTTSHWIRVFYCAVLVC, the amyloid nucleation score is -0.346 ± 0.53.

The substance LSVIFTLSFLTAIFAVGIWS returned an amyloid nucleation score of 0.301 ± 0.23.

Turning to VVLEHVDYHS, the amyloid nucleation score worked out at 0.822 ± 0.52.

Substance VFIYTAACP yielded an amyloid nucleation score of 0.492 ± 0.45.

Take LIFRRGTALFVLPVARYRCA: the amyloid nucleation score is -1.57 ± 1.8.

In the case of GLWYHA, the amyloid nucleation score turned out to be 0.025 ± 0.62.

AFYLLF: the amyloid nucleation score was -0.395 ± 0.51.

Take RYFVYLSVFDYFINHLDIRW: the amyloid nucleation score was -0.79 ± 0.42.

LLPGLIEWSVGLMCLIL gave an amyloid nucleation score of 0.023 ± 0.9.

As to VKCYLDLINFRYLLDLGDEA, the amyloid nucleation score stood at 0.066 ± 0.2.

Substance RRNVYFYVWYVSPNVMKYSN came in with an amyloid nucleation score of 3.84 ± 0.1.

With AIGCVWVRNRVAIVGERVAK, the amyloid nucleation score amounted to 2.08 ± 0.23.

In turn, YFLGQMLISEGIMSVAFCVR gave an amyloid nucleation score of 5.13 ± 0.073.

For the substance IDHSNTIFMSQCRRLSVPE, the amyloid nucleation score was -0.889 ± 1.7.

IQQTLPQRYMYNEIRPCSSL: the amyloid nucleation score was found to be 0.502 ± 0.19.

As for GMLNIDSVPDTYGLSQPVVP, the amyloid nucleation score was -0.498 ± 0.57.

Regarding RFMTHLVRRLYAFGMSF, the amyloid nucleation score entry was “inactive”.

As to TICNMSRWYDMKNYGEKMEV, the amyloid nucleation score worked out at 1.21 ± 0.6.

Consider IAVNSYASVDTYTSLLIRWL, for which the amyloid nucleation score turned out to be 0.993 ± 0.36.

As to VYSSMIVLKDALIPSSKTDA, the amyloid nucleation score is 0.999 ± 0.51.

As for YPWIFCFEILHYYQLVRLWG, the amyloid nucleation score was -1.13 ± 0.55.

On to VVGSVLRGSYTCLG, for which the amyloid nucleation score is -0.972 ± 0.82.

On to NSYRFSLFQ, for which the amyloid nucleation score turned out to be 1.32 ± 0.46.

As to NSYVLVNCALLRLGRINVFY, the amyloid nucleation score worked out at 7.56 ± 0.077.

As to YCGMKVDVVIVGRHVFRISF, the amyloid nucleation score was determined as 0.512 ± 0.41.

Consider ICNFERILRNMVFAWWYKID, for which the amyloid nucleation score stood at 0.621 ± 0.42.

On to LSMGAHSGGPLQSY, for which the amyloid nucleation score was -0.205 ± 1.1.

On to PFIWDDLAETVLNK, for which the amyloid nucleation score worked out at 0.144 ± 0.27.

As to YGRKISYLKFLKCVDVVLGW, the amyloid nucleation score came to 0.303 ± 0.28.

DGHFVALSVLVCTMRC: the amyloid nucleation score is 1.01 ± 0.65.

For PFVDVTRHRNSPS, the amyloid nucleation score was 1.01 ± 1.

Take HVVAALWCARNFWGVLNVCC: the amyloid nucleation score was -0.09 ± 0.53.

For IMYSQNEGDMYESSFV, the amyloid nucleation score is -0.551 ± 0.35.

In the case of NPVPGARKNRVHAGSKSDTG, the amyloid nucleation score came to 0.075 ± 0.68.

On to SARRTPCTVIL, for which the amyloid nucleation score is 0.362 ± 1.4.

As to EVGRSCWLGSL, the amyloid nucleation score is -0.344 ± 0.68.

The substance LRPKWVAGDVLFQIYPWTRR showed an amyloid nucleation score of 0.629 ± 0.85.

The substance MFVNPALLLFL yielded an amyloid nucleation score of 0.226 ± 1.6.

As for MNKQAFNGRM, the amyloid nucleation score entry is “inactive”.

Regarding VIGVRAQYLCRHTLSVRYRK, the amyloid nucleation score stood at 1.67 ± 0.4.

FAWVDPGFLWDNLTPGTDRC gave an amyloid nucleation score of 0.253 ± 0.43.

Turning to FIEQGHYNHTGFGSYGWRF, the amyloid nucleation score came out at 0.972 ± 0.29.

With YVMSS, the amyloid nucleation score was -0.369 ± 0.41.

As for LMWKNSGNYKLRCYRVV, the amyloid nucleation score was -0.065 ± 0.21.

Regarding SNTEP, the amyloid nucleation score was -0.487 ± 0.57.

Take TWEFRYNFFYNVPRLQTYKI: the amyloid nucleation score was -0.169 ± 0.42.

On to AIASVLAN, for which the amyloid nucleation score was -0.482 ± 0.3.

The substance GVLYSDTLT had an amyloid nucleation score of 1.5 ± 0.14.

In the case of HLSVFQLDLTREVANCKSWM, the amyloid nucleation score came to 3.17 ± 0.11.

RAIIGFSLSQRGYLPNTDLR: the amyloid nucleation score is 3.1 ± 0.095.

Take LHRSQMIFMCLSVTYSAK: the amyloid nucleation score is -0.209 ± 0.47.

As for NEGEVIAELIIFVNPWVTI, the amyloid nucleation score was -0.599 ± 0.43.

The substance QYSRLESLLM showed an amyloid nucleation score of 0.483 ± 0.39.

As for TCHLIL, the amyloid nucleation score is -0.872 ± 0.34.

As to KPRVRAAGLCSLQFWALIAV, the amyloid nucleation score was -0.275 ± 0.72.

Consider GWVGLLH, for which the amyloid nucleation score was found to be 0.457 ± 0.31.

For RHFRMGRHRFEGWVLTGASG, the amyloid nucleation score was found to be 0.194 ± 0.38.

VDRCGFGVFATVGMSCMDSF showed an amyloid nucleation score of 0.918 ± 0.45.

TVSLGEQFLFTIAVGYGDSD: the amyloid nucleation score result is “inactive”.

NVLVQGFG: the amyloid nucleation score is -0.017 ± 0.66.

As for PCCWLPRGDTLDYTQHR, the amyloid nucleation score is -0.065 ± 0.98.

In the case of YAFDMRMENTQVRYHVPLII, the amyloid nucleation score is 0.292 ± 0.73.

Regarding RNDHSRDHPFLDISWVCLGQ, the amyloid nucleation score is 0.58 ± 1.2.

LHVISGFYKCRTKRL yielded an amyloid nucleation score of 0.862 ± 0.32.

Take GFELEAIKEYFGCWPSHYRF: the amyloid nucleation score entry is “inactive”.

In turn, LSGVCRIFH came in with an amyloid nucleation score of 0.584 ± 0.35.

VYSRPL gave an amyloid nucleation score of 0.098 ± 0.57.

Turning to AKRLWIQLRGVHSRMLTGYY, the amyloid nucleation score is -0.244 ± 1.5.

Consider PGPRVNHTRCVM, for which the amyloid nucleation score came out at 1.52 ± 0.85.

Substance SICTCKWYVSVWWAIWRINN yielded an amyloid nucleation score of 1.59 ± 0.42.

Consider IRGVKSYLSLITLFSKTHLV, for which the amyloid nucleation score was -0.833 ± 0.39.

Turning to ILRSGNVCYHNTVRWVLSYR, the amyloid nucleation score was found to be 0.225 ± 0.21.

As for LFVHFLTLSVISHYPRGN, the amyloid nucleation score result was “inactive”.

Turning to VRGVSVGSYKSVAELGGTQT, the amyloid nucleation score was -0.449 ± 1.3.

LWHFWGYGGALP: the amyloid nucleation score is -0.738 ± 0.75.

Consider LYLVILVELMVYSKWCIKSP, for which the amyloid nucleation score is 0.414 ± 0.36.

For IIAIPHLTLSWTNLSMGQG, the amyloid nucleation score turned out to be 3.76 ± 0.1.

On to AGNRTVYWMLTSVSTSG, for which the amyloid nucleation score is 0.64 ± 0.75.

On to VPLGSDSNHNANVTCYFASA, for which the amyloid nucleation score is -0.078 ± 0.37.

As to ELRLSLYLRKRRQYFRFVLK, the amyloid nucleation score is -0.516 ± 1.7.

As to LNRFLYDSCLFSCYFGYMVA, the amyloid nucleation score was -0.017 ± 0.25.

Regarding YVEPSF, the amyloid nucleation score was -0.083 ± 0.97.

With SEFASLERSHSHLYMWEFSL, the amyloid nucleation score came to 0.171 ± 0.63.

TFVLRCFSRCDGAITFQTRP gave an amyloid nucleation score of 1.14 ± 0.2.

The substance RYSSLRWTISFDNLVVSFRP yielded an amyloid nucleation score of 0.724 ± 0.68.

Substance IYEKRGD gave an amyloid nucleation score of 1.15 ± 0.98.

For IYNQESVEYQGTMYLHFRYW, the amyloid nucleation score entry was “inactive”.

Take VVARYYIQLFDRRDRN: the amyloid nucleation score is 6.678 ± 0.065.

As for QCMSMSYPFMPRTHQRTVLK, the amyloid nucleation score was -0.179 ± 0.31.

For the substance ETPNAFHVHMSYVYRLRWSR, the amyloid nucleation score was found to be 2.75 ± 0.17.

ALFCSTIRNQIGFIRHPESF came in with an amyloid nucleation score of 0.026 ± 0.58.

Substance SGGLNFLGLPVVFF registered an amyloid nucleation score of 0.173 ± 0.92.

With SYNQLDKCR, the amyloid nucleation score entry was “inactive”.

Substance RYISTLYEMNLKYVNVVQFH registered an amyloid nucleation score of 6.416 ± 0.045.

As for KTFYFTQLYSDYRLFFETGK, the amyloid nucleation score worked out at 0.558 ± 0.46.

The values above are taken from the supplement of paper PMC12042874.
